Measurements taken from article PMC2929534 (Biochemistry, 2010).
Where two headings read alike, the source gives them in different places.

Columns and labels:
[1] = target: AsiA M1A mutant (bacteriophage T4) (UniProt P32267); experiment: dynamic light scattering
[2] = target: AsiA M1A mutant (bacteriophage T4) (UniProt P32267); experiment: AUC
[3] = target: the molecule itself; experiment: dynamic light scattering
[4] = target: the molecule itself; experiment: AUC
[5] = target: the molecule itself; experiment: AUC; remark: listed apart in the source
[6] = target: σ^70 subunit of Escherichia coli RNA polymerase (E. coli, UniProt P00579 1-613); experiment: native gel or EMSA

| Molecule | stoichiometry N [3] | Ka [4] [M⁻¹] | Kd [4] [nM] | further results |
| --- | --- | --- | --- | --- |
| AsiA M1A mutant (from UniProt P32267 1-90) (natural protein) | – | – | – | stoichiometry N [1]: 2; Ka [2]: 3.8e+06 M⁻¹; Kd [2]: 260 nM; stoichiometry N [2]: 2 |
| AsiA protein (wild type) (natural protein, bacteriophage T4, UniProt P32267 1-90, looked up) MNKNIDTVREIITVASILIKFSREDIVENRANFIAFLNEIGVTHEGRKLNQNSFRKIVSELTQEDKKTLIDEFNEGFEGVYRYLEMYTNK | 2 | 2.8e+06 | 350 | – |
| AsiA K20A mutant (natural protein, bacteriophage T4, UniProt P32267 1-90, looked up) MNKNIDTVREIITVASILIAFSREDIVENRANFIAFLNEIGVTHEGRKLNQNSFRKIVSELTQEDKKTLIDEFNEGFEGVYRYLEMYTNK | 2 | 2.1e+06 | 480 | – |
| AsiA I40A mutant (natural protein, bacteriophage T4, UniProt P32267 1-90, looked up) MNKNIDTVREIITVASILIKFSREDIVENRANFIAFLNEAGVTHEGRKLNQNSFRKIVSELTQEDKKTLIDEFNEGFEGVYRYLEMYTNK | 2 | 360000 | 2700 | – |
| AsiA V14A mutant (natural protein, bacteriophage T4, UniProt P32267 1-90, looked up) MNKNIDTVREIITAASILIKFSREDIVENRANFIAFLNEIGVTHEGRKLNQNSFRKIVSELTQEDKKTLIDEFNEGFEGVYRYLEMYTNK | 2 | 820000 | 1200 | – |
| AsiA E39A mutant (natural protein, bacteriophage T4, UniProt P32267 1-90, looked up) MNKNIDTVREIITVASILIKFSREDIVENRANFIAFLNAIGVTHEGRKLNQNSFRKIVSELTQEDKKTLIDEFNEGFEGVYRYLEMYTNK | 2 | 5.7e+06 | 180 | – |
| AsiA F21A mutant (natural protein, bacteriophage T4, UniProt P32267 1-90, looked up) MNKNIDTVREIITVASILIKASREDIVENRANFIAFLNEIGVTHEGRKLNQNSFRKIVSELTQEDKKTLIDEFNEGFEGVYRYLEMYTNK | 2 | 4.7e+06 | 210 | – |
| AsiA I17A/I40A double mutant (natural protein, bacteriophage T4, UniProt P32267 1-90, looked up) MNKNIDTVREIITVASALIKFSREDIVENRANFIAFLNEAGVTHEGRKLNQNSFRKIVSELTQEDKKTLIDEFNEGFEGVYRYLEMYTNK | – | – | – | Ka [5]: 1400 M⁻¹; Kd [5]: 694000 nM |
| AsiA I17A mutant (natural protein, bacteriophage T4, UniProt P32267 1-90, looked up) MNKNIDTVREIITVASALIKFSREDIVENRANFIAFLNEIGVTHEGRKLNQNSFRKIVSELTQEDKKTLIDEFNEGFEGVYRYLEMYTNK | 2 | 200000 | 4900 | – |
| AsiA L18A mutant (natural protein, bacteriophage T4, UniProt P32267 1-90, looked up) MNKNIDTVREIITVASIAIKFSREDIVENRANFIAFLNEIGVTHEGRKLNQNSFRKIVSELTQEDKKTLIDEFNEGFEGVYRYLEMYTNK | – | – | – | binding result [6]: binds |
